# From article PMC5743843 (Protein Science : A Publication of the Protein Society, 2017)
# T1: FtsL (E. coli, UniProt P0AEN4 1-121)
# T1 sequence: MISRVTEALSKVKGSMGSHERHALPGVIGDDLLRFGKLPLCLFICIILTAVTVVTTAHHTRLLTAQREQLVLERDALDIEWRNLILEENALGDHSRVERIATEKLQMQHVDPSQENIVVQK
# T2: extracellular region of Nectin-Like 2 (UniProt Q9BY67 45-374)
# T2 sequence: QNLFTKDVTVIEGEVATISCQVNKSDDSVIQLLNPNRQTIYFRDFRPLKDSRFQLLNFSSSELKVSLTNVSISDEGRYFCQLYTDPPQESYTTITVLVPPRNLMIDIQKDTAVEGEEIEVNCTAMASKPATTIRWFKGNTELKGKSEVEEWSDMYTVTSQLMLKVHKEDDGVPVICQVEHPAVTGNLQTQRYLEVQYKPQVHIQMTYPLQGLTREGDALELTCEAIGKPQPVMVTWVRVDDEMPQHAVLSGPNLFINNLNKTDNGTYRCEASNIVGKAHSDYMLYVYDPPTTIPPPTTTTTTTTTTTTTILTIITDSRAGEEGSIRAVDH
# T3: urease accessory protein UreH (Helicobacter pylori, UniProt Q09067 1-265)
# T3 sequence: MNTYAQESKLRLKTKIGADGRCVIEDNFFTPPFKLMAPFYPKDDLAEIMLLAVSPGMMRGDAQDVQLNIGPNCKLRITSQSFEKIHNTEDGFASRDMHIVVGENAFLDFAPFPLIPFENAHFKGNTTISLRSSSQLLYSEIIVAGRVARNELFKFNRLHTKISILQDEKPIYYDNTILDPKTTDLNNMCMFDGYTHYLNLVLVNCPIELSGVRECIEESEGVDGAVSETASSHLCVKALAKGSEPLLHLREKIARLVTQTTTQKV
# B1: FtsB (natural protein)
# chain: MGKLTLLLLAILVWLQYSLWFGKNGIHDYTRVNDDVAAQQATNAKLKARNDQLFAEIDDLNGGQEALEERARNELSMTRPGETFYRLVPDASKRAQSAGQNNR
# B2: extracellular region of CRTAM (domain or fragment)
# chain: SLTNHTETITVEEGQTLTLKCVTSLRKNSSLQWLTPSGFTIFLNEYPALKNSKYQLLHHSANQLSITVPNVTLQDEGVYKCLHYSDSVSTKEVKVIVLATPFKPILEASVIRKQNGEEHVVLMCSTMRSKPPPQITWLLGNSMEVSGGTLHEFETDGKKCNTTSTLIIHTYGKNSTVDCIIRHRGLQGRKLVAPFRFEDLVTDEETASDALERNSLSSQDPQQPTSTVSVTEDSSTSEIDKEEKEQTTQDPDLTTEANPQYLGLARKKSG
# B3: urease accessory protein UreG (enzyme)
# chain: MVKIGVCGPVGSGKTALIEALTRHMSKDYDMAVITNDIYTKEDAEFMCKNSVMPRERIIGVETGGCPHTAIREDASMNLEAVEEMHGRFPNLELLLIESGGDNLSATFNPELADFTIFVIDVAEGDKIPRKGGPGITRSDLLVINKIDLAPYVGADLKVMERDSKKMRGEKPFIFTNIRAKEGLDDVIAWIKRNALLED
# B4: urease accessory protein UreF (natural protein)
# chain: MDKGKSVKSTEKSVGMPPKTPKTDNNAHVDNEFLILQVNDAVFPIGSYTHSFGLETYIQQKKVTNKESALEYLKANLSSQFLYTEMLSLKLTYESALQQDLKKILGVEEVIMLSTSPMELRLANQKLGNRFIKTLQAMNELDMGEFFNAYAQKTKDPTHATSYGVFAASLGIELKKALRHYLYAQTSNMVINCVKSVPLSQNDGQKILLSLQSPFNQLIEKTLELDESHLCTASVQNDIKAMQHESLYSRLYMS
# Legend:
# FtsL = target: T1, FtsL; assay: FRET or BRET + other: single molecule photobleaching
# [1] = target: T2, extracellular region of Nectin-Like 2; assay: SPR
# [2] = target: B4; assay: crystal structure
# [3] = target: T3, urease accessory protein UreH; assay: crystal structure
# crystal structure = target: the molecule itself; assay: crystal structure
binder,measurement,setting,value
B1,stoichiometry N,FtsL,1 FtsB per FtsL
B2,Kd,[1],37.2 nM
B3,binding result,[2],binds
B4,binding result,[3],binds
same,binding result,crystal structure,binds
